Substrate in series [1]: O=C(O)/C=C\Cl
Briefly: purified protein. The conditions noted are these: 20 mM Na2HPO4 pH 9.0, 22 °C.

Substrate in series [2]: O=C(O)/C=C/Cl
Briefly: purified protein. The conditions noted are these: 20 mM Na2HPO4 pH 9.0, 22 °C.

Substrate in series [3]: CC#CC(=O)C(=O)O
Briefly: spectrophotometric hydration assay. Type of series: biochemical, Corynebacterium glutamicum. The conditions noted are these: 20 mM Na2HPO4 pH 9.0, 23 °C.

B1: Cg10062 (Corynebacterium glutamicum ATCC 13032) (protein)
chain: PTYTCWSQRIRISREAKQRIAEAITDAHHELAHAPKYLVQVIFNEVEPDSYFIAAQSASENHIWVQATIRSGRTEKQKEELLLRLTQEIALILGIPNEEVWVYITEIPGSNMTEYGRLLMEPGEEEKWFNSLPEGLRERLTELEGSSE
For B1, the Km was 19 ± 1 mM in the series “purified protein [1]”, 78 ± 36 mM in the series “purified protein [2]” and 6.2 ± 0.75 mM in series [3]. Besides, the kcat in “purified protein [1]” was 3.5 ± 1.1 s⁻¹; in “purified protein [2]”, 0.06 ± 0.01 s⁻¹; in series [3] it was 0.33 ± 0.03 s⁻¹. In addition, the kcat/Km in “purified protein [1]” turned out to be 184 M⁻¹ s⁻¹; in “purified protein [2]” it was 0.8 M⁻¹ s⁻¹; in series [3], 50 M⁻¹ s⁻¹.

B2: CaaD (trans-3-chloroacrylic acid dehalogenase) (Pseudomonas pavonaceae) (protein)
chain 1: PMISCDMRYGRTDEQKRALSAGLLRVISEATGEPRENIFFVIREGSGINFVEHGEHLPDYVPGNANDKALIAKLK
chain 2: PFIECHIATGLSVARKQQLIRDVIDVTNKSIGSDPKIINVLLVEHAEANMSISGRIHGEAASTERTPAVS
With B2, in the series “purified protein [2]”, the Km worked out at 0.028 ± 0.003 mM, the kcat stood at 1.9 ± 0.6 s⁻¹ and the kcat/Km amounted to 68000 M⁻¹ s⁻¹.
